Biological target: T1, 3×Flag−His6−ATG9A (purified) (UniProt Q7Z3C6 1-839)
T1 construct: ATG9A; also called Flag−ATG9A; 3×Flag−ATG9A
T1 sequence (looked up): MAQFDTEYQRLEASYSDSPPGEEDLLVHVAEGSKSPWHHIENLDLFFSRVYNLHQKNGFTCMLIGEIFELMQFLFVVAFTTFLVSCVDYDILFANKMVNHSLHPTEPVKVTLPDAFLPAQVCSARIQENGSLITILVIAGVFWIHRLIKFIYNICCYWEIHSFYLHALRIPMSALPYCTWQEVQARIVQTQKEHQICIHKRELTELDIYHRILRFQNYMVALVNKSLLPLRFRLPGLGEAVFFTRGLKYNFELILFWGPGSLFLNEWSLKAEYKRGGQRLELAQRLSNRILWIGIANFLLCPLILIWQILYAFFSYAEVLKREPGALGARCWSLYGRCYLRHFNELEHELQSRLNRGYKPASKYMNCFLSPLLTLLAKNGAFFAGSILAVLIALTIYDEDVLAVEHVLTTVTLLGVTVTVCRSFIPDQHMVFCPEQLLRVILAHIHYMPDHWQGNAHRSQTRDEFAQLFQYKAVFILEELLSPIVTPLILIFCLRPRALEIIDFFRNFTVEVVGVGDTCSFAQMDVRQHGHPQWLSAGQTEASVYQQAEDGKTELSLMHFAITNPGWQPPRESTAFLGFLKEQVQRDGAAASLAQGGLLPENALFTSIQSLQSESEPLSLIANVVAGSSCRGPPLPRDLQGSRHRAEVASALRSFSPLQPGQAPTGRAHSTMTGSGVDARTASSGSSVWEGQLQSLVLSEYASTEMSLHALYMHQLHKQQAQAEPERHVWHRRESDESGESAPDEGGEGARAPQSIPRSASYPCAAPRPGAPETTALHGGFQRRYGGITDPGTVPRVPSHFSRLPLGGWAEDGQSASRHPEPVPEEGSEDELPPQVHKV
Test: co-IP; in vitro IP: 100 μg purified 3×Flag−GFP−VPS13A fragment 4 mixed with 10 μg purified ATG9A at 4°C in 0.002% LMNG:CHS (5:1), GFP-Trap beads, four washes with VPS13 buffer with detergent; immunoblot
Settings: both partners purified

B1: 3×Flag−eGFP−VPS13A fragment 4 (purified) (domain or fragment, human, UniProt Q96RL7 2554-3174, looked up)
chain: VVWETKPKKKARWKPMSVKHTEKLEREFKEYTESSPSEDKVIQLDTNVPVRLTPTGHNMKILQPHVIALRRNYLPALKVEYNTSAHQSSFRIQIYRIQIQNQIHGAVFPFVFYPVKPPKSVTMDSAPKPFTDVSIVMRSAGHSQISRIKYFKVLIQEMDLRLDLGFIYALTDLMTEAEVTENTEVELFHKDIEAFKEEYKTASLVDQSQVSLYEYFHISPIKLHLSVSLSSGREEAKDSKQNGGLIPVHSLNLLLKSIGATLTDVQDVVFKLAFFELNYQFHTTSDLQSEVIRHYSKQAIKQMYVLILGLDVLGNPFGLIREFSEGVEAFFYEPYQGAIQGPEEFVEGMALGLKALVGGAVGGLAGAASKITGAMAKGVAAMTMDEDYQQKRREAMNKQPAGFREGITRGGKGLVSGFVSGITGIVTKPIKGAQKGGAAGFFKGVGKGLVGAVARPTGGIIDMASSTFQGIKRATETSEVESLRPPRFFNEDGVIRPYRLRDGTGNQMLQVMENGRFAKYKYFTHVMINKTDMLMITRRGVLFVTKGTFGQLTCEWQYSFDEFTKEPFIVHGRRLRIEAKERVKSVFHAREFGKIINFKTPEDARWILTKLQEAREPSPSL
notes: VPS13A, human, fragment 4, residues 2554-3174; Subcloned into pcDNA3.1(+); The methods partly write '3×Flag−eGFP−VPS13A' without 'fragment 4'; also called Flag−GFP−VPS13A4; 3×Flag-VPS13A fragment 4
- binding result: binds
